In patent US20200317768A1 (published 2020):
Positions count from the first letter of the chain named.

How the values were obtained:
[1] = biological target: T1, Human latent myostatin (human, UniProt O14793 25-266; O14793 267-375); test: SPR 37C; KD pH 5.8 / KD pH 7.4
T1 construct: also called human myostatin latent form
T1 sequence 1: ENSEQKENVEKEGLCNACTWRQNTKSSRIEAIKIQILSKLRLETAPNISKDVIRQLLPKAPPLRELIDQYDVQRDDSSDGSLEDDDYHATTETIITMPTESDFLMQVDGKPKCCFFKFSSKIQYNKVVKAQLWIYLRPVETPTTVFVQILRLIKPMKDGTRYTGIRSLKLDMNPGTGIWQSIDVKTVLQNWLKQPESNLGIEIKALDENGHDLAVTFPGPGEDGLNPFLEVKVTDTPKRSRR
T1 sequence 2: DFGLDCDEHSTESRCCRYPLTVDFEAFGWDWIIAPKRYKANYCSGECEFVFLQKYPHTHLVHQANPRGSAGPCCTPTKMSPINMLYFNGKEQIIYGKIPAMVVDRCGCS
Description: (§1) ProA/G (Pierce) was immobilized onto all flow cells of a CM4 chip using an amine coupling kit (GE Healthcare). All antibodies and analytes were prepared in ACES pH7.4 or pH5.8 buffer containing 20 mM ACES, 150 mM NaCl, 1.2 mM CaCl₂, 0.05% TWEEN®) 20, 0.005% NaN₃. […] Human, cyno, and mouse latent myostatin was injected at 3.125 to 50 nM prepared by two-fold serial dilution, followed by dissociation. The sensor surface was regenerated each cycle with 10 mM Glycine HCl pH1.5. Binding affinity was determined by processing and fitting the data to a 1:1 binding model using BIACORE® T200 Evaluation software, version 2.0 (GE Healthcare).

[2] = biological target: T2, Cynomolgus monkey latent myostatin (cynomolgus monkey, UniProt Q95J86 25-266; Q95J86 267-375); test: SPR 37C; KD pH 5.8 / KD pH 7.4
T2 construct: Latent form = complex of two propeptides and the mature dimer; also called Cyno latent myostatin
T2 sequence 1: T1 sequence 1 with V52A
T2 sequence 2: T1 sequence 2
Description: as §1

[3] = biological target: T3, Mouse latent myostatin (mouse, UniProt O08689 26-267; O08689 268-376); test: SPR 37C; KD pH 5.8 / KD pH 7.4
T3 construct: Latent form = complex of two propeptides and the mature dimer
T3 sequence 1: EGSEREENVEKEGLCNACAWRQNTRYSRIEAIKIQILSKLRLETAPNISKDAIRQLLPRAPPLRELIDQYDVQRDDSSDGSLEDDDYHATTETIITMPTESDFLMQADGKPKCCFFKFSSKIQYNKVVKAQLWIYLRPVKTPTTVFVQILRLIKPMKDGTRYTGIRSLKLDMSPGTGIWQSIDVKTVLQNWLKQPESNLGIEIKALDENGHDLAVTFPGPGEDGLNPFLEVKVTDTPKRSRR
T3 sequence 2: T1 sequence 2
Description: as §1

[4] = biological target: T4, cynomolgus monkey FcγRIIIaS extracellular domain, C-terminal His-tag (cynomolgus monkey, UniProt Q8SPW2 21-206 at identity 1.00)); test: SPR (BIACORE) 25C, antibody captured, FcgR as analyte
T4 construct: also called cyno FcγRIIIaS; FcgRIIIaS
T4 chain: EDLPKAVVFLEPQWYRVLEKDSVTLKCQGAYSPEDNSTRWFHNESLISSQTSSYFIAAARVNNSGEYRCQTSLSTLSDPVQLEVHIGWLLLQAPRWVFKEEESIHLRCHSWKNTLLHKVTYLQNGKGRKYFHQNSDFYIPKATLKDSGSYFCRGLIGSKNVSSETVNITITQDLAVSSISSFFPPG
Description: (§2) The kinetic analysis of interactions between these antibodies and FcγR was carried out using BIACORE® T200 or BIACORE® 4000 (GE Healthcare). HBS-EP+ (GE Healthcare) was used as the running buffer, and the measurement temperature was set to 25° C. A chip produced by immobilizing Protein A. Protein A/G or mouse anti-human IgG kappa light chain (BD Biosciences) onto a Series S Sensor Chip CM4 or CM5 (GE Healthcare) by the amine-coupling method was used. […] After the measurement, the antibody captured on the chip was washed off by allowing reaction with 10 mM glycine-HCl, pH1.5 and 25 mM NaOH so that the chip was regenerated and used repeatedly. The sensorgrams obtained as measurement results were analyzed by the 1:1 Langmuir binding model using the BIACORE® Evaluation Software to calculate the binding rate constant ka (L/mol/s) and dissociation rate constant kd (l/s), and the dissociation constant KD (mol/L) was calculated from these values. […] Regarding such interactions, KD values were calculated using the following 1:1 binding model described in BIACORE® T100 Software Handbook BR1006-48 Edition AE.

[5] = biological target: T5, human FcγRIIaH extracellular domain, C-terminal His-tag (human, UniProt P12318 34-217); test: as above
T5 construct: also called human FcγRIIa (type H); FcgRIIaH
T5 sequence: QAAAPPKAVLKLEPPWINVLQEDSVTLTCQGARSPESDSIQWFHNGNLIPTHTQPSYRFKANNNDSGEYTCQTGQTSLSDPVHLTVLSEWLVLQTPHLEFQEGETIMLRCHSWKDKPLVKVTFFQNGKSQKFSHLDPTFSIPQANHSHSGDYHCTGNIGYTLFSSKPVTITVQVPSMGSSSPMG
Description: as §2

[6] = biological target: T6, cynomolgus monkey FcγRIIa3 extracellular domain, C-terminal His-tag (cynomolgus monkey); test: SPR; FcgR bound per captured antibody, normalized to SG1
T6 construct: also called cyno FcγRIIa3; FcgRIIa3
T6 chain: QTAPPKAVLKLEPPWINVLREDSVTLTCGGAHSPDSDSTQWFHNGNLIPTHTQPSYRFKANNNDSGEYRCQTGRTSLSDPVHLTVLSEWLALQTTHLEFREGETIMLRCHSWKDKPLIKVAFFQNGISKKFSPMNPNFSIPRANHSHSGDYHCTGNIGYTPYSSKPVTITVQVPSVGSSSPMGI

[7] = biological target: T4, cynomolgus monkey FcγRIIIaS …; test: as above

- ratio of KD at pH 5.8/pH 7.4 [1]: 119
- ratio of KD at pH 5.8/pH 7.4 [2]: 76
- ratio of KD at pH 5.8/pH 7.4 [3]: 76
- Kd [4]: 420 nM
- Kd [5]: 930 nM
- amount of FcgR binding (SG1 = 100) [6]: 100 SG1 = 100
- amount of FcgR binding (SG1 = 100) [7]: 100 SG1 = 100
B1: MS_M103205H795-SG1/M103202L889-SK1 (antibody, human IgG1, kappa)
heavy: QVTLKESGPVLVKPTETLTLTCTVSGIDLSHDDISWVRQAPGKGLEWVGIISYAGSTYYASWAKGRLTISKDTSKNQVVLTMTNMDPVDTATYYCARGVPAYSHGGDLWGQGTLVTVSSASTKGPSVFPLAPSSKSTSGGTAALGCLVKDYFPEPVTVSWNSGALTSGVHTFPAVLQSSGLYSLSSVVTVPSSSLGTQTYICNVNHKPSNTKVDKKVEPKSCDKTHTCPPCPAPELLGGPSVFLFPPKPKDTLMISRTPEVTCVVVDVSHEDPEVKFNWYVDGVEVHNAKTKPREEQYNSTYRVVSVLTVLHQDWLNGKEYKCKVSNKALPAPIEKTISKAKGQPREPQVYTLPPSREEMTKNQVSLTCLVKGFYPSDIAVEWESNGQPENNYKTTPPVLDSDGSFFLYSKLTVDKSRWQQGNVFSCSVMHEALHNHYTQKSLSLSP
light: DIVMTQSPATLSLSPGERATLSCTSSQSVYHANWLSWFQQKPGQPPKLLIYWASTLAYGVPSRFSGSGSGTDFTLTISSLQPEDAATYYCAGGYGGGRYAFGQGTKVEIKRTVAAPSVFIFPPSDEQLKSGTASVVCLLNNFYPREAKVQWKVDNALQSGNSQESVTEQDSKDSTYSLSSTLTLSKADYEKHKVYACEVTHQGLSSPVTKSFNRGEC
notes: also called MS1032LO06-SG1
